Reference: publication PMC11059001, “Crystal structure of Trichinella spiralis calreticulin and the structural basis of its complement evasion mechanism involving C1q” (Frontiers in Immunology, 2024)

Target: T1, complement C1q (human, UniProt P02745;P02746;P02747)
T1 construct: also called human complement C1q; source: bought: Merk (Darmstadt, Germany); copies: 6 + 6 + 6
Experiment: MST; fluorescently labelled C1q (RED-NHS) 40 nM; TsCRT, TsCRT^Δ, mutants or P^TsCRT gradient-diluted; 50 mM Hepes, 150 mM NaCl, 2 mM CaCl2, 0.05% Tween 20, pH 7.4; Monolith NT.115, LED power 20%, MST power 50%
Details: both partners purified

T1 sequence (P02745 23-245, chain 1 of 3): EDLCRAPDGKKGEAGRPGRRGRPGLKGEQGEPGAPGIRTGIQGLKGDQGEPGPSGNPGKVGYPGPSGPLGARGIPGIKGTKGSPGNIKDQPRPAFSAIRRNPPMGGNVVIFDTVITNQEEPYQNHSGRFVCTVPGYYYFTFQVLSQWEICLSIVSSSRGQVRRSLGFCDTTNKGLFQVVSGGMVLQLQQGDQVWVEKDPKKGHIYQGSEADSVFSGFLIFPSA
T1 sequence (P02746 28-253, chain 2 of 3): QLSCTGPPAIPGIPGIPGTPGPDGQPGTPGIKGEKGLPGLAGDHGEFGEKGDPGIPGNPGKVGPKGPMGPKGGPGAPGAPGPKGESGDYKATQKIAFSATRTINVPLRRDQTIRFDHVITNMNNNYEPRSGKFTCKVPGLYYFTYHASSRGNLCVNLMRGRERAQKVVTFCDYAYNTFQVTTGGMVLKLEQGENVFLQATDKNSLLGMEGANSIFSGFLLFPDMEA
T1 sequence (P02747 29-245, chain 3 of 3): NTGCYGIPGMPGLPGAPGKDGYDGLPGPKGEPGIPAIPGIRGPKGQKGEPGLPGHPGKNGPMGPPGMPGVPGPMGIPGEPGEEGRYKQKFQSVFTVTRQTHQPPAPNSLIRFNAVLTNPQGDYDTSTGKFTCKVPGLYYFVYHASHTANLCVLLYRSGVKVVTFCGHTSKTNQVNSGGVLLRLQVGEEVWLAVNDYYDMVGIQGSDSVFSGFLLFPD

B1: C1q-binding peptide P^TsCRT (TsCRT residues 122-146) (peptide)
peptide: DLEDFNSDTPYRIMFGPDICGPEKR
notes: calreticulin of Trichinella spiralis (TsCRT), residues 122-146; source: synthetic peptide
Binder B1 has a Kd of 260 nM.
